Data from a protein production outcome set (Wang et al. 2014).

Assay: label from the status in PepcDB records

Row | Sequence | protein production
1 | MNEIITWILIVICLTQSAVFSGLTIGIFGLGRLRLEIEAEANNKNAIKILQVRRDSNFLLTTLLWGNVGVNVLIAQLTDSVMAGTFAFLFSTFGITCFGEIMPQAYFSRNALDIGAKLTPLVRFYQMLLYPVAKPTALVLDWWLGREKLELFREQAMRIMLEKHIESGKTDIGTFEGIGALNFLSIDDVSISDEGSIIDSRSIISLPVENNRPVFPPFNREPSDPFLQKIEASGKKWVIITSPENEPVMVLDADGFLRDAVYKKGPFLPLIYCHFPVVVKSPETRLEKVIRQFKVYPQYPEDDVIDQDLILYWGEEKRIITGSDILGRLLRGIVVECELGSGCEIPVPPSQPGFVRRTAFRRGKKKEIENLKRK | not failed
2 | MKTFKKGVILDAKSVGLKALEVLKEVADFDFYEVTPPSQIVERSIEAEIMVLNKVVITQEVLSQLPKLKLICITATGTDNVDIKSAKALGIEVKNVSAYSTESVAQHTLACALSLLGRINDYDRYCKSGEYSQSDLFTHISDIKMGLIKGSQWGVIGLGTIGKRVAKLAQAFGAKVVYYSPKDKKEEYERLSLKDLLATSDIISIHAPLNESTRDLIALKELQSLKDGAILINVGRGGIVNEKDLAEILETKDLYYASDVFVKEPFEKDHAFLNPKIQNKLLLTPHIAWAYSDSLKTLVEKTKENIQDFLASQK | failed
3 | MARLSLVPGRGGLVTEWTVQGQPILYFDRERFQDPSLSVRGGIPILFPICGNLPQDQFNHAGKSYRLKQHGFARDLPWEVIGQQTQDNARLDLRLSHNDATLEAFPFAFELVFSYQLQGHSLRIEQRIANLGDQRMPFSLGFHPYFFCREKLGITLAIPANDYLDQKTGDCHGYDGQLNLTSPELDLAFTQISQPRAHFIDPDRNLKIEVSFSELYQTLVLWTVAGKDYLCLEPLEHHHHHH | failed
4 | MASFPHPGSVTVCEINRDLITAQNLSDERAQETYGKVLGMVFSPVSFDSTPSSLQENEGQENGDKASGESKGLVATLQMKVADSLKQILQPTDVTLLSEIDLQGVSWHQGKHIIAFISGANQVTIRDYEDKDEKEPCILTSDSQRNVKALEWRPNGGKSLSIACRGGICIWAASYPGNMALVRSGGSALRGSLSRGSGTRWILVDFLRCQNDEQISALSWSPCGRYLASASYDSSSFTIWDVSQGAGTPIRRGLGGISMLKWSPTGDYFFAARFDGTFCLWETNTWTSEPWSLSSGSGSVTGAIWDPEGRFILISFSKSSTLGSVHFSSKPPSLDAHLLPVELPEIASLTGCEGIEKIAWDASGERLAVSYKGGDENYKGLIAIYDTRRTPIVSASLVGFIRGPGENPKALSFSFHDKFKQGPLLSVCWSTGFCCTYPLIFRSHVLP | failed
5 | MLPRVHRVRRGGTVYKYHRRTRKELPRDVPEDDPRFVAAWLAEEQRAPTVRSRSQAGTIAAACEAYLGSRSYRELSDGYRPVIRRHVERIKEQGEKALLKDLLPRHIRADLEPLSPPVASSRLKAWRKLAEFWLLKGMLDADPSEGVKRKKMGKVAGFTEWTAEDLEAFRARWPIGTAQRLALELYQWTGARCVDVIRLGPQMVGRDGVLTYVQQKTGNPAHVPWTCPAFGLEEQRADLMRCLPVGSPVYMLTEYGKPRTQKGVSQWFSAAAREAGLESRTAHGLRKYRMNALAEHGASVLVMQSWVGHTTLLEVQEYTRRADRRRVISGGHPVKRDPAGA | failed
6 | MGHVLIEMMGIKKGDFVLDVGCGTGRQALNVAGIIGPAGKLTGIDPSSYRIELARKKFEGDSSGNVRFLVRQAENLQDIPDNSINHAYFCSSFHWVDDKKTALNEIFRVLRPGGKVGMTTLDRNSPNTMKALIDPILAKFGIERRHEWHRGMKKVTAPELHDLLSGAGFTSISIEPRAVPRKYNSPEEFLQHPEEKDSSRGILRDISNETLEKLRQEITEEFRKAQTPEDIGFGNITLFAIATKAQEGLEHHHHHH | not failed
7 | DYFTTTNSIPPVITTNHRRKHSIEKFYRDQLGSIIWNEEDVGHQQVPEINKHGYRAAVKIIVIIDNMERKAAIQSRQSYDEALRYGAVLIFLPGIYEIDT | failed
8 | SGQAYIGTYPNGDKIFVKINTTPILAALAKEQIAPQLLWAKRLGNGDMMSAQEWLDGRLLTRADMNSKQIIQVLLQMHKSKPLVNQLLQLNYKVETPLDLLLSWERSAPYQISENAYLQSVVAEMKRNLPDFKKDYATIVHGDVRHSNWVITTSGLVYLVDWDSVRVTDRMYDVAHILSHYIPHTRWAEWLSYYGYKQNTKVFQKIKWYGQLSYLSQILKYYENR | failed
9 | MGMIGYFAEIDSEKINQLLESTEKPLMDNIHDTLSGLRRLDIDKRWDFLHFGLTGTSAFDPAKNDPLSRAVLGEHSLEDGIDGFLGLTWNQELAATIDRLESLDRNELRKQFSIKRLNEMEIYPGVTFSEELEGQLFASIMLDMEKLISAYRRMLRQGNHALTVIVG | not failed
